In patent US20210032299A1 (Eli Lilly, published 2021):
Starred links: 1 amine or outer side, 2 acyl side, 3 side chain; linkers in the order of their positions; H or OH if unused. Non-standard residues stand in square brackets, D forms with d. Groups on a side chain read outwards from the residue. No end group written: not given here. *: point of attachment. C20 diacid = O=C(O)CCCCCCCCCCCCCCCCCCC(=O)*; C18 diacid = O=C(O)CCCCCCCCCCCCCCCCC(=O)*; γGlu = O=C(O)[C@H](CCC(=O)[*:2])N[*:1]; 4Pal = N[C@@H](Cc1ccncc1)C(=O)O; αMeL = CC(C)C[C@](C)(N)C(=O)O; AEEA = NCCOCCOCC(=O)O; Aib = CC(C)(N)C(=O)O

T1: human glucose-dependent insulinotropic polypeptide (GIP) receptor (human, UniProt P48546 22-466)
T1 construct: whole, on cells; Assayed as crude membranes of stably transfected CHO cells; also called hGIPR; human GIP receptor
T1 sequence (looked up): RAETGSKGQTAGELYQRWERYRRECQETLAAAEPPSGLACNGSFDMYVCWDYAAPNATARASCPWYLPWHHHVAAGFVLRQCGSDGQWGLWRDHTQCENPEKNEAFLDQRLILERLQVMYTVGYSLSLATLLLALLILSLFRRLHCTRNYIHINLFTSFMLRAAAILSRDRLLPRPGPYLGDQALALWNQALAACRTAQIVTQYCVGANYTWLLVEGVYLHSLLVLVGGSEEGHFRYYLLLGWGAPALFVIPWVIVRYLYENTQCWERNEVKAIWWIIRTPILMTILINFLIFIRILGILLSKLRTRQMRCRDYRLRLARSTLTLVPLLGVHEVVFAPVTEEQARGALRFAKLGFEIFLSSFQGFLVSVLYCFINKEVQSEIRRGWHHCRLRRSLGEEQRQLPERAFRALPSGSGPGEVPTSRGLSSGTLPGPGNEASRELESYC

B1: Example 22 (peptide)
peptide: Y[Aib]EGTFISDYSILLDKK([AEEA-AEEA-γGlu-C18 diacid])HQ[Aib]DFVE[4Pal]LLAGGPSSGAPPPS-NH2
modifications: N-terminus assumed
SMILES: CC[C@H](C)[C@H](NC(=O)[C@H](CO)NC(=O)[C@H](Cc1ccc(O)cc1)NC(=O)[C@H](CC(=O)O)NC(=O)[C@H](CO)NC(=O)[C@@H](NC(=O)[C@H](Cc1ccccc1)NC(=O)[C@@H](NC(=O)CNC(=O)[C@H](CCC(=O)O)NC(=O)C(C)(C)NC(=O)[C@@H](N)Cc1ccc(O)cc1)[C@@H](C)O)[C@@H](C)CC)C(=O)N[C@@H](CC(C)C)C(=O)N[C@@H](CC(C)C)C(=O)N[C@@H](CC(=O)O)C(=O)N[C@@H](CCCCN)C(=O)N[C@@H](CCCCNC(=O)COCCOCCNC(=O)COCCOCCNC(=O)CC[C@H](NC(=O)CCCCCCCCCCCCCCCCC(=O)O)C(=O)O)C(=O)N[C@@H](Cc1c[nH]cn1)C(=O)N[C@@H](CCC(N)=O)C(=O)NC(C)(C)C(=O)N[C@@H](CC(=O)O)C(=O)N[C@@H](Cc1ccccc1)C(=O)N[C@H](C(=O)N[C@@H](CCC(=O)O)C(=O)N[C@@H](Cc1ccncc1)C(=O)N[C@@H](CC(C)C)C(=O)N[C@@H](CC(C)C)C(=O)N[C@@H](C)C(=O)NCC(=O)NCC(=O)N1CCC[C@H]1C(=O)N[C@@H](CO)C(=O)N[C@@H](CO)C(=O)NCC(=O)N[C@@H](C)C(=O)N1CCC[C@H]1C(=O)N1CCC[C@H]1C(=O)N1CCC[C@H]1C(=O)N[C@@H](CO)C(N)=O)C(C)C
B2: Example 21 (peptide)
peptide: Y[Aib]EGTFISDYSIALDKK([AEEA-AEEA-γGlu-C18 diacid])HQ[Aib]DFVE[4Pal]LLAGGPSSGAPPPS-NH2
modifications: N-terminus assumed
SMILES: CC[C@H](C)[C@H](NC(=O)[C@H](CO)NC(=O)[C@H](Cc1ccc(O)cc1)NC(=O)[C@H](CC(=O)O)NC(=O)[C@H](CO)NC(=O)[C@@H](NC(=O)[C@H](Cc1ccccc1)NC(=O)[C@@H](NC(=O)CNC(=O)[C@H](CCC(=O)O)NC(=O)C(C)(C)NC(=O)[C@@H](N)Cc1ccc(O)cc1)[C@@H](C)O)[C@@H](C)CC)C(=O)N[C@@H](C)C(=O)N[C@@H](CC(C)C)C(=O)N[C@@H](CC(=O)O)C(=O)N[C@@H](CCCCN)C(=O)N[C@@H](CCCCNC(=O)COCCOCCNC(=O)COCCOCCNC(=O)CC[C@H](NC(=O)CCCCCCCCCCCCCCCCC(=O)O)C(=O)O)C(=O)N[C@@H](Cc1c[nH]cn1)C(=O)N[C@@H](CCC(N)=O)C(=O)NC(C)(C)C(=O)N[C@@H](CC(=O)O)C(=O)N[C@@H](Cc1ccccc1)C(=O)N[C@H](C(=O)N[C@@H](CCC(=O)O)C(=O)N[C@@H](Cc1ccncc1)C(=O)N[C@@H](CC(C)C)C(=O)N[C@@H](CC(C)C)C(=O)N[C@@H](C)C(=O)NCC(=O)NCC(=O)N1CCC[C@H]1C(=O)N[C@@H](CO)C(=O)N[C@@H](CO)C(=O)NCC(=O)N[C@@H](C)C(=O)N1CCC[C@H]1C(=O)N1CCC[C@H]1C(=O)N1CCC[C@H]1C(=O)N[C@@H](CO)C(N)=O)C(C)C
B3: Example 10 (peptide)
peptide: Y[dA]EGTFISDYSILLDKK([AEEA-AEEA-γGlu-C20 diacid])HQQDFVNWLLAGGPSSGAPPPS-NH2
modifications: N-terminus assumed
SMILES: CC[C@H](C)[C@H](NC(=O)[C@H](CO)NC(=O)[C@H](Cc1ccc(O)cc1)NC(=O)[C@H](CC(=O)O)NC(=O)[C@H](CO)NC(=O)[C@@H](NC(=O)[C@H](Cc1ccccc1)NC(=O)[C@@H](NC(=O)CNC(=O)[C@H](CCC(=O)O)NC(=O)[C@@H](C)NC(=O)[C@@H](N)Cc1ccc(O)cc1)[C@@H](C)O)[C@@H](C)CC)C(=O)N[C@@H](CC(C)C)C(=O)N[C@@H](CC(C)C)C(=O)N[C@@H](CC(=O)O)C(=O)N[C@@H](CCCCN)C(=O)N[C@@H](CCCCNC(=O)COCCOCCNC(=O)COCCOCCNC(=O)CC[C@H](NC(=O)CCCCCCCCCCCCCCCCCCC(=O)O)C(=O)O)C(=O)N[C@@H](Cc1c[nH]cn1)C(=O)N[C@@H](CCC(N)=O)C(=O)N[C@@H](CCC(N)=O)C(=O)N[C@@H](CC(=O)O)C(=O)N[C@@H](Cc1ccccc1)C(=O)N[C@H](C(=O)N[C@@H](CC(N)=O)C(=O)N[C@@H](Cc1c[nH]c2ccccc12)C(=O)N[C@@H](CC(C)C)C(=O)N[C@@H](CC(C)C)C(=O)N[C@@H](C)C(=O)NCC(=O)NCC(=O)N1CCC[C@H]1C(=O)N[C@@H](CO)C(=O)N[C@@H](CO)C(=O)NCC(=O)N[C@@H](C)C(=O)N1CCC[C@H]1C(=O)N1CCC[C@H]1C(=O)N1CCC[C@H]1C(=O)N[C@@H](CO)C(N)=O)C(C)C
B4: Example 83 (peptide)
peptide: Y[Aib]EGTFISDYSI[αMeL]LDEK([AEEA-AEEA-γGlu-C20 diacid])HQ[Aib]DFVE[4Pal]LLATGPSSGAPPPS-NH2
modifications: N-terminus assumed
SMILES: CC[C@H](C)[C@H](NC(=O)[C@H](Cc1ccccc1)NC(=O)[C@@H](NC(=O)CNC(=O)[C@H](CCC(=O)O)NC(=O)C(C)(C)NC(=O)[C@@H](N)Cc1ccc(O)cc1)[C@@H](C)O)C(=O)N[C@@H](CO)C(=O)N[C@@H](CC(=O)O)C(=O)N[C@@H](Cc1ccc(O)cc1)C(=O)N[C@@H](CO)C(=O)N[C@H](C(=O)N[C@@](C)(CC(C)C)C(=O)N[C@@H](CC(C)C)C(=O)N[C@@H](CC(=O)O)C(=O)N[C@@H](CCC(=O)O)C(=O)N[C@@H](CCCCNC(=O)COCCOCCNC(=O)COCCOCCNC(=O)CC[C@H](NC(=O)CCCCCCCCCCCCCCCCCCC(=O)O)C(=O)O)C(=O)N[C@@H](Cc1c[nH]cn1)C(=O)N[C@@H](CCC(N)=O)C(=O)NC(C)(C)C(=O)N[C@@H](CC(=O)O)C(=O)N[C@@H](Cc1ccccc1)C(=O)N[C@H](C(=O)N[C@@H](CCC(=O)O)C(=O)N[C@@H](Cc1ccncc1)C(=O)N[C@@H](CC(C)C)C(=O)N[C@@H](CC(C)C)C(=O)N[C@@H](C)C(=O)N[C@H](C(=O)NCC(=O)N1CCC[C@H]1C(=O)N[C@@H](CO)C(=O)N[C@@H](CO)C(=O)NCC(=O)N[C@@H](C)C(=O)N1CCC[C@H]1C(=O)N1CCC[C@H]1C(=O)N1CCC[C@H]1C(=O)N[C@@H](CO)C(N)=O)[C@@H](C)O)C(C)C)[C@@H](C)CC
B5: Example 84 (peptide)
peptide: Y[Aib]EGTFISDYSI[αMeL]LDEK([AEEA-AEEA-γGlu-C20 diacid])HQ[Aib]DFVE[4Pal]LLAQGPSSGAPPPS-NH2
modifications: N-terminus assumed
SMILES: CC[C@H](C)[C@H](NC(=O)[C@H](Cc1ccccc1)NC(=O)[C@@H](NC(=O)CNC(=O)[C@H](CCC(=O)O)NC(=O)C(C)(C)NC(=O)[C@@H](N)Cc1ccc(O)cc1)[C@@H](C)O)C(=O)N[C@@H](CO)C(=O)N[C@@H](CC(=O)O)C(=O)N[C@@H](Cc1ccc(O)cc1)C(=O)N[C@@H](CO)C(=O)N[C@H](C(=O)N[C@@](C)(CC(C)C)C(=O)N[C@@H](CC(C)C)C(=O)N[C@@H](CC(=O)O)C(=O)N[C@@H](CCC(=O)O)C(=O)N[C@@H](CCCCNC(=O)COCCOCCNC(=O)COCCOCCNC(=O)CC[C@H](NC(=O)CCCCCCCCCCCCCCCCCCC(=O)O)C(=O)O)C(=O)N[C@@H](Cc1c[nH]cn1)C(=O)N[C@@H](CCC(N)=O)C(=O)NC(C)(C)C(=O)N[C@@H](CC(=O)O)C(=O)N[C@@H](Cc1ccccc1)C(=O)N[C@H](C(=O)N[C@@H](CCC(=O)O)C(=O)N[C@@H](Cc1ccncc1)C(=O)N[C@@H](CC(C)C)C(=O)N[C@@H](CC(C)C)C(=O)N[C@@H](C)C(=O)N[C@@H](CCC(N)=O)C(=O)NCC(=O)N1CCC[C@H]1C(=O)N[C@@H](CO)C(=O)N[C@@H](CO)C(=O)NCC(=O)N[C@@H](C)C(=O)N1CCC[C@H]1C(=O)N1CCC[C@H]1C(=O)N1CCC[C@H]1C(=O)N[C@@H](CO)C(N)=O)C(C)C)[C@@H](C)CC

What follows are binders tested against T1, human glucose-dependent insulinotropic … (assay: SPA, displacement of [125I]-GIP from hGIPR membranes, 0.1% bacitracin).

Q: With B1 as the binder, how does the Ki read?
A: 0.219 nM

Q: Which Ki does the source give for B2 here?
A: 1.46 nM

Q: For B3, which Ki is on record?
A: 0.159 nM

Q: B4 was tested. Which Ki did it give?
A: 0.116 nM

Q: For B5, which Ki is on record?
A: 0.0584 nM

These binders were tested against T2, human GLP-1 receptor (human, UniProt P43220 24-463) (assay: SPA, displacement of [125I]-GLP-1 from hGLP-1R membranes, 0.1% bacitracin).
T2 construct: whole, on cells; Assayed as crude membranes of stably transfected HEK293 cells; also called hGLP1R; hGLP-1R
Protocol: The binding buffer contains 25 mM HEPES, pH 7.4, 2.5 mM CaCl₂, 1 mM MgCl₂, 0.1% (w/v) bacitracin, 0.003% (w/v) TWEEN®-20, and Roche Complete™ Protease Inhibitors without EDTA.
Data are analyzed using four-parameter (curve maximum, curve minimum, […], Hill slope) nonlinear regression routines (Genedata Screener, version 12.0.4, Genedata AG, Basal, Switzerland). […] Values for Kᵢ are reported as the geometric mean, with error expressed as the standard error of the mean (SEM) and n is equal to the number of independent replicates (determined in assays performed on different days). Geometric Means are calculated as follows: […]

Q: B1 was tested. Which Ki did it give?
A: 388 nM

Q: With B2 as the binder, how does the Ki read?
A: 801 nM

Q: B3 was tested. Which Ki did it give?
A: 60.7 nM

Q: With B4 as the binder, how does the Ki read?
A: 452 nM

Q: For B5, which Ki is on record?
A: 325 nM
